This is an account of results in the supplement of paper PMC5998384.

The subject of data set [1] is HeLa Kyoto. In words: melting temperature (median over replicates), in situ; higher = more thermally stable.
In data set [2] the test system is HeLa Kyoto. In words: solubility change mitosis vs G1/S (difference of NP-40 vs SDS log2 ratios) (log2 ratio difference); higher = more soluble in mitosis.
In data set [3] the test system is HeLa Kyoto. In words: thermal stability score vs G1/S (z-score of summed log2 fold changes over temperatures); higher = more thermally stable than in G1/S.
For data set [4], the system named is HeLa Kyoto. In words: solubility in G1/S (NP-40 vs SDS abundance) (log2 ratio); higher = more soluble. To be noted: cell cycle stage: G1/S.
[5] abbreviates: cell cycle stage: early G1 (4.5 h after nocodazole release).
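Throughout, for melting temperature (median over replicates), in situ: HeLa Kyoto cells synchronized by double thymidine or nocodazole block, proteins quantified by TMT10plex mass spectrometry, three independent biological replicates.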
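Throughout, for solubility change mitosis vs G1/S (difference of NP-40 vs SDS log2 ratios): synchronized HeLa Kyoto cells (double thymidine block for G1/S, nocodazole release for mitosis), protein amounts in NP-40 versus SDS lysates quantified by mass spectrometry, three biological replicates.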
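Throughout, for solubility in G1/S (NP-40 vs SDS abundance): HeLa Kyoto cells arrested at G1/S by double thymidine block, proteins quantified by TMT10plex mass spectrometry in mild NP-40 versus SDS extracts, three biological replicates.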
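Throughout, for thermal stability score vs G1/S (z-score of summed log2 fold changes over temperatures): synchronized HeLa Kyoto cells, proteins quantified by TMT10plex mass spectrometry, three biological replicates, mitosis taken 0.5 h after nocodazole release, G1/S directly after double thymidine block.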

Sequence of UTP20 (chain, as listed by the source): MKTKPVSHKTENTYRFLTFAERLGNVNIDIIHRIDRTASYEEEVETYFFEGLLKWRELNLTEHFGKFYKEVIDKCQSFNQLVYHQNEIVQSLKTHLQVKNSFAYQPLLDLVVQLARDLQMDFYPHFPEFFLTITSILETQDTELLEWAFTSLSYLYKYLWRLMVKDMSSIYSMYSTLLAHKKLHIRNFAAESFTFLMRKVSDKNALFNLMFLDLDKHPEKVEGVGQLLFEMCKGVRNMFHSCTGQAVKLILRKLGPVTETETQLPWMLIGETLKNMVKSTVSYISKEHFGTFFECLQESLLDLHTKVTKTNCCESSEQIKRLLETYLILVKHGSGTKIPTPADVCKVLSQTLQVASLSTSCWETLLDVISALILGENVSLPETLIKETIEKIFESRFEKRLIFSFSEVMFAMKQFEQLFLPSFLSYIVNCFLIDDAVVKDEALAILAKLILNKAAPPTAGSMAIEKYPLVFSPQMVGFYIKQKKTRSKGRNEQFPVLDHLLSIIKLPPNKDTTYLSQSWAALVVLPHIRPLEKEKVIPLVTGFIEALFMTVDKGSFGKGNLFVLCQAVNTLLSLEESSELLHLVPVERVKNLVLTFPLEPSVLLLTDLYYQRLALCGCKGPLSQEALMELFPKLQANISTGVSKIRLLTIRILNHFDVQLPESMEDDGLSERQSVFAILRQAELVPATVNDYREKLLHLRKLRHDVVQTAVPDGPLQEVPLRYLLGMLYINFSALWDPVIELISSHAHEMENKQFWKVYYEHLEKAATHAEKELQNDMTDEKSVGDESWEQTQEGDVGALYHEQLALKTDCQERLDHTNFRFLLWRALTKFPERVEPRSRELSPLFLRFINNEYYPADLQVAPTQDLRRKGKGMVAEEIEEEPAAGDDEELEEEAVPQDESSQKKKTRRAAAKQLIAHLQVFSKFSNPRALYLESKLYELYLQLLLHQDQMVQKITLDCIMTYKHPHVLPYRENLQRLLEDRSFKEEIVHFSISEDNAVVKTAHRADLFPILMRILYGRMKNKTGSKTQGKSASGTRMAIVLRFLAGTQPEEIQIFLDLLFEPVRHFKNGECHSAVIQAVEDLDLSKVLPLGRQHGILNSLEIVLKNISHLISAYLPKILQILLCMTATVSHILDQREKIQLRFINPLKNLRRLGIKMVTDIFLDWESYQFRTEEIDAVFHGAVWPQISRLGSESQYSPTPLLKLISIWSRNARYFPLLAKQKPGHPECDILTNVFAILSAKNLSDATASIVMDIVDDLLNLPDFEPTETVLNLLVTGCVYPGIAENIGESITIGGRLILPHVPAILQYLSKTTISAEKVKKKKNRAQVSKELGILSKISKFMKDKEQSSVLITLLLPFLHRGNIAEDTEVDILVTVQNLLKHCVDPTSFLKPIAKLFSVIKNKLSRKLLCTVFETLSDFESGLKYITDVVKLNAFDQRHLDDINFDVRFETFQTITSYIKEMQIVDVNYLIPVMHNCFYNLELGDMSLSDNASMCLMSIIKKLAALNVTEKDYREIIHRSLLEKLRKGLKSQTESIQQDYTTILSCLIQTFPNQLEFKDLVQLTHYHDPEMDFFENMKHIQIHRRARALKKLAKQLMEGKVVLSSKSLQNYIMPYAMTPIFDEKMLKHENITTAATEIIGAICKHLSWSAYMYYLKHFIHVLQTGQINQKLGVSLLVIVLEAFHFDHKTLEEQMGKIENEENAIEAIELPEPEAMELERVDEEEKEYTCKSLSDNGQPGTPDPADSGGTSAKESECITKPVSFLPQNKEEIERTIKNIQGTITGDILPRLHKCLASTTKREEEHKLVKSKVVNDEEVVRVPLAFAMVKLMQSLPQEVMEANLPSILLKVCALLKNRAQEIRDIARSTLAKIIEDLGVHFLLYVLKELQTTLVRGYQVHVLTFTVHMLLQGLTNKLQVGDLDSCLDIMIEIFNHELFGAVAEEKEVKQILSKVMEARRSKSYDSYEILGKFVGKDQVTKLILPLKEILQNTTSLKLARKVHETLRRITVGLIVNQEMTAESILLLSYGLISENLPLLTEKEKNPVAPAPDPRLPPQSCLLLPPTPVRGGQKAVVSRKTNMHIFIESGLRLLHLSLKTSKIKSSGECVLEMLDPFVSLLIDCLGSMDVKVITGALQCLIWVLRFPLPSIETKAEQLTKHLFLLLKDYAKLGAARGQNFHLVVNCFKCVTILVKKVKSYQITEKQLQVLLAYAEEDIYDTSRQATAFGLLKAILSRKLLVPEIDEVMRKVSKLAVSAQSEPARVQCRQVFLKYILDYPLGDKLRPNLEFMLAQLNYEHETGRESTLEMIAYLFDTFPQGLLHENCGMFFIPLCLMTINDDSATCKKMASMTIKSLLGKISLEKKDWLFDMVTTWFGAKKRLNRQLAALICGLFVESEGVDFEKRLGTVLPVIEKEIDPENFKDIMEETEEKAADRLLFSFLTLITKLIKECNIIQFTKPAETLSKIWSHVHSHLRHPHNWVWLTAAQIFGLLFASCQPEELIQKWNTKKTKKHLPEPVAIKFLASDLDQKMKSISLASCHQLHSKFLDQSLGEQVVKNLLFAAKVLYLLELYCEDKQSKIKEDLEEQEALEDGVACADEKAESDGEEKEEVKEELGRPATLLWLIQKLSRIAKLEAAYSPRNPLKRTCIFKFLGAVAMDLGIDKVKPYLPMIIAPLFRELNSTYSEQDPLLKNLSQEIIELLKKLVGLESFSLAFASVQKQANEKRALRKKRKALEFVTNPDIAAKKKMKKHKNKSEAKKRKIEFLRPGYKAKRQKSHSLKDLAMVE

Turning to UTP20, the melting temperature is 47.3 °C in the data set on HeLa Kyoto [1] (cell cycle stage: G1/S) and 50.7 °C in the data set with HeLa Kyoto [1] (cell cycle stage: mitosis). The “solubility change mitosis (log2)” value with HeLa Kyoto [2] stood at 0.363. The thermal stability score with HeLa Kyoto [3] (setting [5]) came out at 1.17; in the data set on HeLa Kyoto [3] (cell cycle stage: mitosis), 5.97. Moreover, in the data set on HeLa Kyoto [4], the “solubility in G1/S (log2)” value was -1.01.

As for “MSIMSYNGGAVMAMKGKNCVAIAADRRFGIQAQMVTTDFQKIFPMGDRLYIGLAGLATDVQTVAQRLKFRLNLYELKEGRQIKPYTLMSMVANLLYEKRFGPYYTEPVIAGLDPKTFKPFICSLDLIGCPMVTDDFVVSGTCAEQMYGMCESLWEPNMDPDHLFETISQAMLNAVDRDAVSGMGVIVHIIEKDKITTRTLKARMD [PSMB3]”, the melting temperature in the data set with HeLa Kyoto [1] (cell cycle stage: G1/S) came out at 59.9 °C; with HeLa Kyoto [1] (cell cycle stage: mitosis), 62.6 °C. Besides, in the data set on HeLa Kyoto [2], the “solubility change mitosis (log2)” value was -0.241. Besides, the thermal stability score is -1.89 in the data set on HeLa Kyoto [3] (setting [5]) and -1.25 with HeLa Kyoto [3] (cell cycle stage: mitosis). Further, in the data set on HeLa Kyoto [4], the “solubility in G1/S (log2)” value was 0.275.

For the substance KIF14, the melting temperature in the data set on HeLa Kyoto [1] (cell cycle stage: G1/S) worked out at 49.1 °C; with HeLa Kyoto [1] (cell cycle stage: mitosis), 45.5 °C. The “solubility change mitosis (log2)” value in the data set with HeLa Kyoto [2] was -0.0203. In addition, the thermal stability score in the data set on HeLa Kyoto [3] (setting [5]) is -0.945; in the data set on HeLa Kyoto [3] (cell cycle stage: mitosis), -2.77. Moreover, the “solubility in G1/S (log2)” value in the data set on HeLa Kyoto [4] was -0.297.

Regarding “MLVLFETSVGYAIFKVLNEKKLQEVDSLWKEFETPEKANKIVKLKHFEKFQDTAEALAAFTALMEGKINKQLKKVLKKIVKEAHEPLAVADAKLGGVIKEKLNLSCIHSPVVNELMRGIRSQMDGLIPGVEPREMAAMCLGLAHSLSRYRLKFSADKVDTMIVQAISLLDDLDKELNNYIMRCREWYGWHFPELGKIISDNLTYCKCLQKVGDRKNYASAKLSELLPEEVEAEVKAAAEISMGTEVSEEDICNILHLCTQVIEISEYRTQLYEYLQNRMMAIAPNVTVMVGELVGARLIAHAGSLLNLAKHAASTVQILGAEKALFRALKSRRDTPKYGLIYHASLVGQTSPKHKGKISRMLAAKTVLAIRYDAFGEDSSSAMGVENRAKLEARLRTLEDRGIRKISGTGKALAKTEKYEHKSEVKTYDPSGDSTLPTCSKKRKIEQVDKEDEITEKKAKKAKIKVKVEEEEEEKVAEEEETSVKKKKKRGKKKHIKEEPLSEEEPCTSTAIASPEKKKKKKKKRENED [NOP58]”, the melting temperature came out at 52.5 °C with HeLa Kyoto [1] (cell cycle stage: G1/S) and 51.5 °C in the data set on HeLa Kyoto [1] (cell cycle stage: mitosis). In addition, the “solubility change mitosis (log2)” value in the data set with HeLa Kyoto [2] stood at 1.07. Moreover, the thermal stability score in the data set on HeLa Kyoto [3] (setting [5]) is -0.671; with HeLa Kyoto [3] (cell cycle stage: mitosis), -1.23. Besides, the “solubility in G1/S (log2)” value in the data set with HeLa Kyoto [4] was -1.64.

For the substance “MSVDMNSQGSDSNEEDYDPNCEEEEEEEEDDPGDIEDYYVGVASDVEQQGADAFDPEEYQFTCLTYKESEGALNEHMTSLASVLKVSHSVAKLILVNFHWQVSEILDRYKSNSAQLLVEARVQPNPSKHVPTSHPPHHCAVCMQFVRKENLLSLACQHQFCRSCWEQHCSVLVKDGVGVGVSCMAQDCPLRTPEDFVFPLLPNEELREKYRRYLFRDYVESHYQLQLCPGADCPMVIRVQEPRARRVQCNRCNEVFCFKCRQMYHAPTDCATIRKWLTKCADDSETANYISAHTKDCPKCNICIEKNGGCNHMQCSKCKHDFCWMCLGDWKTHGSEYYECSRYKENPDIVNQSQQAQAREALKKYLFYFERWENHNKSLQLEAQTYQRIHEKIQERVMNNLGTWIDWQYLQNAAKLLAKCRYTLQYTYPYAYYMESGPRKKLFEYQQAQLEAEIENLSWKVERADSYDRGDLENQMHIAEQRRRTLLKDFHDT [ARIH2]”, the values for the melting temperature with HeLa Kyoto [1] (cell cycle stage: G1/S) and in the data set on HeLa Kyoto [1] (cell cycle stage: mitosis) were 51.8 °C and 52.3 °C, respectively. Besides, the “solubility change mitosis (log2)” value with HeLa Kyoto [2] is -0.151. Also, the thermal stability score in the data set with HeLa Kyoto [3] (setting [5]) is 0.643; in the data set with HeLa Kyoto [3] (cell cycle stage: mitosis), -0.0869. Also, in the data set with HeLa Kyoto [4], the “solubility in G1/S (log2)” value was -0.242.

With “MSNIYIQEPPTNGKVLLKTTAGDIDIELWSKEAPKACRNFIQLCLEAYYDNTIFHRVVPGFIVQGGDPTGTGSGGESIYGAPFKDEFHSRLRFNRRGLVAMANAGSHDNGSQFFFTLGRADELNNKHTIFGKVTGDTVYNMLRLSEVDIDDDERPHNPHKIKSCEVLFNPFDDIIPREIKRLKKEKPEEEVKKLKPKGTKNFSLLSFGEEAEEEEEEVNRVSQSMKGKSKSSHDLLKDDPHLSSVPVVESEKGDAPDLVDDGEDESAEHDEYIDGDEKNLMRERIAKKLKKDTSANVKSAGEGEVEKKSVSRSEELRKEARQLKRELLAAKQKKVENAAKQAEKRSEEEEAPPDGAVAEYRREKQKYEALRKQQSKKGTSREDQTLALLNQFKSKLTQAIAETPENDIPETEVEDDEGWMSHVLQFEDKSRKVKDASMQDSDTFEIYDPRNPVNKRRREESKKLMREKKERR [CWC27]”, the melting temperature in the data set on HeLa Kyoto [1] (cell cycle stage: G1/S) is 47.3 °C; in the data set with HeLa Kyoto [1] (cell cycle stage: mitosis), 49.8 °C. Also, the “solubility change mitosis (log2)” value in the data set with HeLa Kyoto [2] was determined as 0.0672. Moreover, the values for the thermal stability score in the data set with HeLa Kyoto [3] (setting [5]) and in the data set with HeLa Kyoto [3] (cell cycle stage: mitosis) were 0.415 and 1.04, respectively. The “solubility in G1/S (log2)” value in the data set on HeLa Kyoto [4] amounted to 0.0954.

As for “MEGLLHYINPAHAISLLSALNEERLKGQLCDVLLIVGDQKFRAHKNVLAASSEYFQSLFTNKENESQTVFQLDFCEPDAFDNVLNYIYSSSLFVEKSSLAAVQELGYSLGISFLTNIVSKTPQAPFPTCPNRKKVFVEDDENSSQKRSVIVCQSRNEAQGKTVSQNQPDVSHTSRPSPSIAVKANTNKPHVPKPIEPLHNLSLTEKSWPKDSSVVYAKSLEHSGSLDDPNRISLVKRNAVLPSKPLQDREAMDDKPGVSGQLPKGKALELALKRPRPPVLSVCSSSETPYLLKETNKGNGQGEDRNLLYYSKLGLVIPSSGSGSGNQSIDRSGPLVKSLLRRSLSMDSQVPVYSPSIDLKSSQGSSSVSSDAPGNVLCALSQKSSLKDCSEKTALDDRPQVLQPHRLRSFSASQSTDREGASPVTEVRIKTEPSSPLSDPSDIIRVTVGDAATTAAASSSSVTRDLSLKTEDDQKDMSRLPAKRRFQADRRLPFKKLKVNEHGSPVSEDNFEEGSSPTLLDADFPDSDLNKDEFGELEGTRPNKKFKCKHCLKIFRSTAGLHRHVNMYHNPEKPYACDICHKRFHTNFKVWTHCQTQHGIVKNPSPASSSHAVLDEKFQRKLIDIVREREIKKALIIKLRRGKPGFQGQSSSQAQQVIKRNLRSRAKGAYICTYCGKAYRFLSQFKQHIKMHPGEKPLGVNKVAKPKEHAPLASPVENKEVYQCRLCNAKLSSLLEQGSHERLCRNAAVCPYCSLRFFSPELKQEHESKCEYKKLTCLECMRTFKSSFSIWRHQVEVHNQNNMAPTENFSLPVLDHNGDVTGSSRPQSQPEPNKVNHIVTTKDDNVFSDSSEQVNFDSEDSSCLPEDLSLSKQLKIQVKEEPVEEAEEEAPEASTAPKEAGPSKEASLWPCEKCGKMFTVHKQLERHQELLCSVKPFICHVCNKAFRTNFRLWSHFQSHMSQASEESAHKESEVCPVPTNSPSPPPLPPPPPLPKIQPLEPDSPTGLSENPTPATEKLFVPQESDTLFYHAPPLSAITFKRQFMCKLCHRTFKTAFSLWSHEQTHN [ZBTB21]”, in the data set with HeLa Kyoto [1] (cell cycle stage: mitosis), the melting temperature turned out to be 51.7 °C. Also, the “solubility change mitosis (log2)” value in the data set with HeLa Kyoto [2] was -0.0564. Further, the thermal stability score in the data set on HeLa Kyoto [3] (setting [5]) was 0.647; in the data set on HeLa Kyoto [3] (cell cycle stage: mitosis), 0.374. The “solubility in G1/S (log2)” value in the data set with HeLa Kyoto [4] was -0.0999.

Consider BCOR, for which the melting temperature in the data set with HeLa Kyoto [1] (cell cycle stage: G1/S) was 47.6 °C; in the data set on HeLa Kyoto [1] (cell cycle stage: mitosis), 50.1 °C. Besides, the “solubility change mitosis (log2)” value with HeLa Kyoto [2] came out at 0.38. In addition, the thermal stability score was 0.368 in the data set with HeLa Kyoto [3] (setting [5]) and 1.08 with HeLa Kyoto [3] (cell cycle stage: mitosis). The “solubility in G1/S (log2)” value in the data set on HeLa Kyoto [4] is -0.157.
